Reference: patent publication US20190282654A1
Bridge positions count the residues as written; N and C are the ends. Square brackets hold non-standard residues; d marks the D form. Primed or numbered codes have the meaning given here. Ends that are not written are not given here. 2Nal = N[C@@H](Cc1ccc2ccccc2c1)C(=O)O; BMB″ = not defined here

Legend:
GST-NEMO(1-196), Q9Y6K9 = target: T1, GST-NEMO(1-196), Q9Y6K9; assay: HTRF competition: GST-NEMO (30 nM) + biotin-IKKβKK/RR(701-745) (50 nM), 5 mM TCEP
T1 chain: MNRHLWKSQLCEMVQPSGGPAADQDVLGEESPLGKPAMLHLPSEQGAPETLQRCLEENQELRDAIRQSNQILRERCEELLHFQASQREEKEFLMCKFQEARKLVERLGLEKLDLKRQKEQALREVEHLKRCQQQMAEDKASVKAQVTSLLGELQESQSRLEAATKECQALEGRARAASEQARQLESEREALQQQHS

[1] = target: NEMO (endogenous, in NF-κB reporter (Luc)-HEK293 cells), Q9Y6K9; assay: cell-based or functional assay

B1: bicyclic peptide 4 (peptide)
peptide: RRRR[2Nal]FCALDWSWLQC
modifications: linker 7-16 via BMB″ (inferred); not fully specified (bridges); reading uncertain
IC50 (GST-NEMO(1-196), Q9Y6K9): 3.5 µM | TNFα-induced luciferase activity, NF-κB reporter (Luc)-HEK293 cells, IC50 [1]: 20 µM
